In patent publication US20210002358A1 (Janssen / Centocor, published 2021):

Target: T1, soluble tau (control tau, recombinant 2N4R tau, SEQ ID NO: 31) (human, UniProt P10636 2-758)
T1 construct: also called Sol-tau; recombinant WT tau
Assay: direct ELISA on 2N4R Tau coated at 1 ng/mL
Description: Binding to recombinant WT (2N4R; SEQ ID NO:31) tau was analyzed by ELISA where full-length Tau protein (1 ng/mL or 10 ng/mL) was directly coated to the plate and incubated with different concentrations of either recombinantly- or hybridoma produced PT82 antibody (FIG. 2). After incubation with antibodies, plates were again washed and 50 μL per well of HRPO labelled anti-mouse antibody (GE Healthcare) (diluted 1:10000 in blocking buffer) was added. After another washing step detection was performed with “One step” TMB (Thermo Scientific) according to the manufacturers' instructions. Plates were analysed in EnVision® 2102 Multilabel Reader (Perkin Elmer, Waltham, Mass., USA). Binding curves were generated using GraphPad Prism7.0 software. […] No substantial difference has been observed between binding profiles of recombinant and hybridoma produced antibodies.

T1 sequence (P10636 other isoform, or with tags, fused parts or gaps limits assumed): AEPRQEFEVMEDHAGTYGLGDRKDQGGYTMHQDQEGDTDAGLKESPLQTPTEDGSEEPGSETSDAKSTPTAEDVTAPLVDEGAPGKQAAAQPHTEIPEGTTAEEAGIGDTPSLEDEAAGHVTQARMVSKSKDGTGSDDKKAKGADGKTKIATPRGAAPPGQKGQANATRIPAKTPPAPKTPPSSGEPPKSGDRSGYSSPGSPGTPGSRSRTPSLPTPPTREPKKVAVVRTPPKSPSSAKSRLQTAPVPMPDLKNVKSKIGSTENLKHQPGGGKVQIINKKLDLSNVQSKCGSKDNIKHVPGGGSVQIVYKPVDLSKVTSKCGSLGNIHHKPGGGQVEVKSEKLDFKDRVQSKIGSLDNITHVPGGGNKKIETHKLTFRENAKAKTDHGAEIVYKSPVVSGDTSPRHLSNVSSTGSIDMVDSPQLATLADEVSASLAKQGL

B1: PT82 mAb (recombinantly expressed, mouse IgG2a/kappa) (antibody, V domains shown)
VH: EVKLEESGGGLVQPGGSMKLSCVASGFTFSNYWMNWIRQSPEKGLEWVAQIRLQSDNYATRYAESVKGRFTISRDESKTSVYLQMNNLRTEDTGIYYCTGGTTYWGQGTLVTVSA
VL: DIVMTQSQKFMSTSVGDRVSITCKASQNVGTAVAWYQQKPGQSPKLLIYSASIRYTGVPDRFTGSGSGTDFTLTINYMQSEDLADYFCQQFSSYPYTFGGGTKLEIK
notes: also called recombinant PT82; mouse PT82
  EC50 (read off the curve): ~0.04 mg/L
